Reference: patent US20220265769A1, “COMPOSITIONS AND METHODS OF TREATMENT FOR BREAST CANCER INVOLVING A NOVEL CAPER?-MLL1 COMPLEX” (Geisinger Health, priority 2019, published 2022)

B1: RRM3: recombinant RRM3 (441-500)-myc peptide without Penetratin (SEQ ID NO: 33) (protein)
chain: GWDTEIKDDVIEECNKHGGVIHIYVDKNSAQGNVYVKCPSIAAAIAAVNALHGRWFAGKMTAAYVPEQKLISEEDL
modifications: RRM3-derived synthetic sequence
B2: CPP-RRM3: recombinant RRM3 (441-500) conjugated with the Penetratin cell penetrating peptide, myc tag (SEQ ID NO: 32) (protein)
chain: RQIKIWFQNRRMKWKKGWDTEIKDDVIEECNKHGGVIHIYVDKNSAQGNVYVKCPSIAAAIAAVNALHGRWFAGKMTAAYVPEQKLISEEDL
modifications: RRM3-derived synthetic sequence

What was measured:
T47D cells = assay: Crystal violet assay / cell counts of T47D cells treated with cell penetrating peptides; assay type: cell-based, human; conditions: 5 μM peptide in media, 72 hrs
Protocol: FIG. 9. […] A) Amino acid sequences of CPP-RRM1-myc, and RRM3-(441-500)-myc (SEQ ID NO: 33) and CPP-RRM3 (441-500)-myc (SEQ ID NO: 32) peptides. The sequence of Penetratin is in grey, myc tag in light grey and RRM3 in black. B) Coomassie staining showing GST-tagged, purified proteins. C, D) Representative light microscopic images of crystal violet stained cells taken after 3 days of treatment with 5 uM CPP-RRM3 (441-500)-myc. E, F) Crystal violet assay of cell numbers during treatment with 5 uM CPP-RRM3 (441-500) myc. G) Quantification of total number of cells before and after 3 days of treatment with CPP RRM3. H, I, J) Representative light microscopic images of crystal violet stained T47D cells taken after 3 days of treatment with peptides listed at top. K, L, M) Crystal violet assay of number T47D cells over 3 days of treatment with peptides listed. N) Quantification of total number of T47D cells before and after 3 days of treatment.
(§1) Crystal violet assay/optical density method of cell quantitation: 5×10^5 cells were plated per well in 6-well tissue culture plates. At times indicated cells were washed with PBS and fixed for 10 minutes in a 10% formalin solution. Cells were then rinsed with distilled water and subsequently stained with 100 μl 0.1% crystal violet solution for 30 min. Stained cells were rinsed with water to remove the excess traces of the staining solution. Cell-associated crystal violet dye was extracted with 500 μl of 10% acetic acid. Aliquots were collected and optical density was measured at 590 nm wavelength. Each point on the curve shown represents 3 independent wells.
(§2) Cell counts for CPP treatments: Cells were plated in 6-well dishes and incubated with 5 μM concentration of peptides. At days noted, cells were trypsinized and counted using a hemocytometer.
Whether recombinant RRM3 conjugated with the Penetratin cell penetrating peptide (Dupont E, et al., Methods Mol Biol. 1324:29-37 (2015)) (FIGS. 9A, B) affects growth of T47D and PME cells was tested. Equal numbers of PME and T47D cells were seeded and incubated with 5 μM peptide in media for 72 hrs. […]

PME cells = assay: Crystal violet assay / cell counts of primary mammary epithelial cells (PMEs) treated with cell penetrating peptides; assay type: cell-based, human; conditions: PME cells, 5 μM peptide in media, 72 hrs
Protocol: as §1, §2
Whether recombinant RRM3 conjugated with the Penetratin cell penetrating peptide (Dupont E, et al., Methods Mol Biol. 1324:29-37 (2015)) (FIGS. 9A, B) affects growth of T47D and PME cells was tested. Equal numbers of PME and T47D cells were seeded and incubated with 5 μM peptide in media for 72 hrs. […] Compared to CPP-coupled RRM3, CPP-RRM1 and RRM3 had no effect (FIGS. 9H-N). […]

Molecule	number of breast cancer cells (T47D cells)	number of PMEs (PME cells)	number of breast cancer cells (T47D cells; listed as Cell-penetrating CAPERα RRM3)
B1	no effect		
B2	dramatically decreased	no effect	disrupts breast cancer cell growth
